Source: patent US20230257458A1 (SUNSHINE LAKE PHARMA, published 2023)

Columns and labels:
[1] = target: T1, IL-11 protein (UniProt P20809 22-199, limits assumed); test: flow competition: IL-11 + antibody on IL-11R cells; lower = more blocking
T1 construct: also called IL-11 antigen
T1 sequence (looked up): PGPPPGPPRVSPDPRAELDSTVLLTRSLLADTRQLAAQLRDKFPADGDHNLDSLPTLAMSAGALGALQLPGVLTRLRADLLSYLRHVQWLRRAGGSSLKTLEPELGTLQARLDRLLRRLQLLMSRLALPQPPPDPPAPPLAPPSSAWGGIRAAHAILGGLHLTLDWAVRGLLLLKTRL
From the text: (§1) Cell lines with high secretion of specific antibody were selected for expanded culture and cryopreservation.

[2] = target: T1, IL-11 protein; test: ELISA, monoclonal hybridoma supernatant on IL-11
From the text: as §1

[3] = target: T1, IL-11 protein; test: SPR (Biacore), antibody captured, 400 nM IL-11 as analyte
Protocol: The measure method included the steps of capturing the humanized antibody at a flow rate of 10 ul/min. […] Finally the chip was regenerated with 10 mM glycine buffer.

B1: 3-5B2-2G4 (antibody, human IgG1, kappa, V domains shown)
VH: QIQLVQSGPELKKPGETVKISCKASGYTFTNYGMNWVKQAPGKGLKWMGWINTNTGEPTYAEEIKGRFAFSLETSASTAYLQINNLKNEDTATYFCSREGIYGMDSWGQGTSVTVSS
VL: SIVMTQTPKFLLVSAGDRVTITCKASQSVSNDVVWYRQKPGQSPKLLIYYASNRYIGVPDRFTGSGYGTDFTFTISTVQAEDLAVYFCQQDYYSPWTFGGGTKLEIKR
For B1, the “FITC Mean” value [1] was 19800 and the OD450 [2] was 1.65.

B2: 3-15D5-3A6 (antibody, human IgG1, kappa, V domains shown)
VH: QVTLKESGPGILQPSQTLSLTCSFSGFSLSSSGMSVGWIRQPSGKGLEWLAHIWWSDDKSYNPALKSRLTISKDTSNNQVFLKIASVVTADTATYYCAREGSLGYGLDYWGQGTTLTVSS
VL: DVLMTQTPLSLPVSLGDQASISCRSSQSIVHTDGNTYLEWYLQKPGQSPKLLIYKVSNRFSGVPDRFSGSGSGTDFTLKISRVEAEDLGVYYCFQGSHVPWTFGGGTKLEIKR
In the case of B2, the “FITC Mean” value [1] is reported as 10900 and the OD450 [2] is reported as 1.69.

B3: 3-9E1-3A2 (antibody, human IgG1, kappa, V domains shown)
VH: QIQLVQSGPELKKPGETVNISCRASGDTFTNYAVNWVKQAPGKGLKWMGWIDTYTGDPTYADDLKGRFAFSLETSATTAYLQINNLKNEDTATYFCAGDTWFAYWGQGTLVTVSA
VL: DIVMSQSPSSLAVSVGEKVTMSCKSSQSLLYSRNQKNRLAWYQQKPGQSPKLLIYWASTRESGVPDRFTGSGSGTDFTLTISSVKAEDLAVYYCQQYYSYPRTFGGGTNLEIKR
B3 was tested, and the “FITC Mean” value [1] was 9070 and the OD450 [2] was 1.54.

B4: VH2 + VL3-scFv (scFv, V domains shown)
VH: QVQLVQSGAEVKKPGASVKVSCKASDYTFTNYWLGWVRQAPGQGLEWIGHIYPGGGYTNYNEKFKGRVTMTADTSTSTVYMELSSLRSEDTAVYFCARVRSGNDALDFWGQGTLVTVSS
VL: EIVLTQSPATLSLSPGERATLSCRASESVDEYGISFMNWFQQKPGQAPRLLIYSASNQGSGIPARFSGSGSGTDFTLTISSLEPEDFAVYFCQQSKEVPWTFGGGTKLEIK
notes: Humanized 5-20E11-5F2; CHO supernatant; Called scFv, but heavy and light vectors were co-transfected
Work on B4 yielded a Kd [3] of 11.9 nM, a koff [3] of 0.000541 s⁻¹ and a kon [3] of 45600 M⁻¹ s⁻¹.

B5: VH1 + VL1-scFv (scFv, V domains shown)
VH: QVQLVQSGAEVKKPGASVKVSCKASDYTFTNYWLGWVRQAPGQGLEWMGHIYPGGGYTNYNEKFKGRVTMTRDTSTSTVYMELSSLRSEDTAVYYCARVRSGNDALDFWGQGTLVTVSS
VL: EIVLTQSPATLSLSPGERATLSCRASESVDEYGISFMNWYQQKPGQAPRLLIYSASNQGSGIPARFSGSGSGTDFTLTISSLEPEDFAVYYCQQSKEVPWTFGGGTKLEIK
notes: as for B4
B5 was tested, and the Kd [3] was 21.6 nM, the koff [3] was 0.000758 s⁻¹ and the kon [3] was 35100 M⁻¹ s⁻¹.

B6: VH1 + VL2-scFv (scFv, V domains shown)
VH: QVQLVQSGAEVKKPGASVKVSCKASDYTFTNYWLGWVRQAPGQGLEWMGHIYPGGGYTNYNEKFKGRVTMTRDTSTSTVYMELSSLRSEDTAVYYCARVRSGNDALDFWGQGTLVTVSS
VL: EIVLTQSPATLSLSPGERATLSCRASESVDEYGISFMNWYQQKPGQAPRLLIYSASNQGSGIPARFSGSGSGTDFTLTISSLEPEDFAVYFCQQSKEVPWTFGGGTKLEIK
notes: as for B4
With B6 the Kd [3] was 11.2 nM, the koff [3] was 0.000461 s⁻¹ and the kon [3] was 41300 M⁻¹ s⁻¹.

B7: VH1 + VL3-scFv (scFv, V domains shown)
VH: QVQLVQSGAEVKKPGASVKVSCKASDYTFTNYWLGWVRQAPGQGLEWMGHIYPGGGYTNYNEKFKGRVTMTRDTSTSTVYMELSSLRSEDTAVYYCARVRSGNDALDFWGQGTLVTVSS
VL: EIVLTQSPATLSLSPGERATLSCRASESVDEYGISFMNWFQQKPGQAPRLLIYSASNQGSGIPARFSGSGSGTDFTLTISSLEPEDFAVYFCQQSKEVPWTFGGGTKLEIK
notes: as for B4
In the case of B7, the Kd [3] is reported as 12.3 nM, the koff [3] is reported as 0.000436 s⁻¹ and the kon [3] is reported as 35500 M⁻¹ s⁻¹.

B8: VH1 + VL4-scFv (scFv, V domains shown)
VH: QVQLVQSGAEVKKPGASVKVSCKASDYTFTNYWLGWVRQAPGQGLEWMGHIYPGGGYTNYNEKFKGRVTMTRDTSTSTVYMELSSLRSEDTAVYYCARVRSGNDALDFWGQGTLVTVSS
VL: EIVLTQSPATLSLSPGERATLSCRASESVDEYGISFMNWFQQKPGQAPRLLIYSASNQGSGIPARFSGSGSGTDFTLTISSLEPEDFAMYFCQQSKEVPWTFGGGTKLEIK
notes: as for B4
B8 showed a Kd [3] of 11.7 nM, a koff [3] of 0.000387 s⁻¹ and a kon [3] of 33100 M⁻¹ s⁻¹.

B9: VH2 + VL1-scFv (scFv, V domains shown)
VH: QVQLVQSGAEVKKPGASVKVSCKASDYTFTNYWLGWVRQAPGQGLEWIGHIYPGGGYTNYNEKFKGRVTMTADTSTSTVYMELSSLRSEDTAVYFCARVRSGNDALDFWGQGTLVTVSS
VL: EIVLTQSPATLSLSPGERATLSCRASESVDEYGISFMNWYQQKPGQAPRLLIYSASNQGSGIPARFSGSGSGTDFTLTISSLEPEDFAVYYCQQSKEVPWTFGGGTKLEIK
notes: as for B4
Binder B9 has a Kd [3] of 16.7 nM, a koff [3] of 0.00089 s⁻¹ and a kon [3] of 53400 M⁻¹ s⁻¹.

B10: VH2 + VL2-scFv (scFv, V domains shown)
VH: QVQLVQSGAEVKKPGASVKVSCKASDYTFTNYWLGWVRQAPGQGLEWIGHIYPGGGYTNYNEKFKGRVTMTADTSTSTVYMELSSLRSEDTAVYFCARVRSGNDALDFWGQGTLVTVSS
VL: EIVLTQSPATLSLSPGERATLSCRASESVDEYGISFMNWYQQKPGQAPRLLIYSASNQGSGIPARFSGSGSGTDFTLTISSLEPEDFAVYFCQQSKEVPWTFGGGTKLEIK
notes: as for B4
B10 showed a Kd [3] of 17.8 nM, a koff [3] of 0.000812 s⁻¹ and a kon [3] of 45700 M⁻¹ s⁻¹.

B11: VH2 + VL4-scFv (scFv, V domains shown)
VH: QVQLVQSGAEVKKPGASVKVSCKASDYTFTNYWLGWVRQAPGQGLEWIGHIYPGGGYTNYNEKFKGRVTMTADTSTSTVYMELSSLRSEDTAVYFCARVRSGNDALDFWGQGTLVTVSS
VL: EIVLTQSPATLSLSPGERATLSCRASESVDEYGISFMNWFQQKPGQAPRLLIYSASNQGSGIPARFSGSGSGTDFTLTISSLEPEDFAMYFCQQSKEVPWTFGGGTKLEIK
notes: as for B4
Binder B11 has a Kd [3] of 10.8 nM, a koff [3] of 0.000528 s⁻¹ and a kon [3] of 48800 M⁻¹ s⁻¹.

B12: VH3 + VL1-scFv (scFv, V domains shown)
VH: QVQLVQSGAEVKKPGASVKVSCKASDYTFTNYWLGWVRQAPGQGLEWIGHIYPGGGYTNYNEKFKGRATLTADTSTSTVYMELSSLRSEDTAVYFCARVRSGNDALDFWGQGTLVTVSS
VL: EIVLTQSPATLSLSPGERATLSCRASESVDEYGISFMNWYQQKPGQAPRLLIYSASNQGSGIPARFSGSGSGTDFTLTISSLEPEDFAVYYCQQSKEVPWTFGGGTKLEIK
notes: as for B4
B12 gave a Kd [3] of 22.5 nM, a koff [3] of 0.001 s⁻¹ and a kon [3] of 44500 M⁻¹ s⁻¹.

B13: VH3 + VL2-scFv (scFv, V domains shown)
VH: QVQLVQSGAEVKKPGASVKVSCKASDYTFTNYWLGWVRQAPGQGLEWIGHIYPGGGYTNYNEKFKGRATLTADTSTSTVYMELSSLRSEDTAVYFCARVRSGNDALDFWGQGTLVTVSS
VL: EIVLTQSPATLSLSPGERATLSCRASESVDEYGISFMNWYQQKPGQAPRLLIYSASNQGSGIPARFSGSGSGTDFTLTISSLEPEDFAVYFCQQSKEVPWTFGGGTKLEIK
notes: as for B4
Work on B13 yielded a Kd [3] of 14.6 nM, a koff [3] of 0.00068 s⁻¹ and a kon [3] of 46500 M⁻¹ s⁻¹.

B14: VH3 + VL3-scFv (scFv, V domains shown)
VH: QVQLVQSGAEVKKPGASVKVSCKASDYTFTNYWLGWVRQAPGQGLEWIGHIYPGGGYTNYNEKFKGRATLTADTSTSTVYMELSSLRSEDTAVYFCARVRSGNDALDFWGQGTLVTVSS
VL: EIVLTQSPATLSLSPGERATLSCRASESVDEYGISFMNWFQQKPGQAPRLLIYSASNQGSGIPARFSGSGSGTDFTLTISSLEPEDFAVYFCQQSKEVPWTFGGGTKLEIK
notes: as for B4
With B14 the Kd [3] was 9.76 nM, the koff [3] was 0.000464 s⁻¹ and the kon [3] was 47600 M⁻¹ s⁻¹.

B15: VH3 + VL4-scFv (scFv, V domains shown)
VH: QVQLVQSGAEVKKPGASVKVSCKASDYTFTNYWLGWVRQAPGQGLEWIGHIYPGGGYTNYNEKFKGRATLTADTSTSTVYMELSSLRSEDTAVYFCARVRSGNDALDFWGQGTLVTVSS
VL: EIVLTQSPATLSLSPGERATLSCRASESVDEYGISFMNWFQQKPGQAPRLLIYSASNQGSGIPARFSGSGSGTDFTLTISSLEPEDFAMYFCQQSKEVPWTFGGGTKLEIK
notes: as for B4
B15 gave a Kd [3] of 13.3 nM, a koff [3] of 0.000556 s⁻¹ and a kon [3] of 41800 M⁻¹ s⁻¹.

B16: VH4 + VL1-scFv (scFv, V domains shown)
VH: QVQLVQSGAEVKKPGASVKVSCKASDYTFTNYWLGWVRQAPGHGLEWIGHIYPGGGYTNYNEKFKGRATLTADTSTSTVYMELSSLRSEDTAVYFCARVRSGNDALDFWGQGTLVTVSS
VL: EIVLTQSPATLSLSPGERATLSCRASESVDEYGISFMNWYQQKPGQAPRLLIYSASNQGSGIPARFSGSGSGTDFTLTISSLEPEDFAVYYCQQSKEVPWTFGGGTKLEIK
notes: as for B4
In the case of B16, the Kd [3] is reported as 17.2 nM, the koff [3] is reported as 0.00084 s⁻¹ and the kon [3] is reported as 48900 M⁻¹ s⁻¹.

B17: VH4 + VL2-scFv (scFv, V domains shown)
VH: QVQLVQSGAEVKKPGASVKVSCKASDYTFTNYWLGWVRQAPGHGLEWIGHIYPGGGYTNYNEKFKGRATLTADTSTSTVYMELSSLRSEDTAVYFCARVRSGNDALDFWGQGTLVTVSS
VL: EIVLTQSPATLSLSPGERATLSCRASESVDEYGISFMNWYQQKPGQAPRLLIYSASNQGSGIPARFSGSGSGTDFTLTISSLEPEDFAVYFCQQSKEVPWTFGGGTKLEIK
notes: as for B4
In the case of B17, the Kd [3] is reported as 11.1 nM, the koff [3] is reported as 0.000614 s⁻¹ and the kon [3] is reported as 55200 M⁻¹ s⁻¹.

B18: VH4 + VL3-scFv (scFv, V domains shown)
VH: QVQLVQSGAEVKKPGASVKVSCKASDYTFTNYWLGWVRQAPGHGLEWIGHIYPGGGYTNYNEKFKGRATLTADTSTSTVYMELSSLRSEDTAVYFCARVRSGNDALDFWGQGTLVTVSS
VL: EIVLTQSPATLSLSPGERATLSCRASESVDEYGISFMNWFQQKPGQAPRLLIYSASNQGSGIPARFSGSGSGTDFTLTISSLEPEDFAVYFCQQSKEVPWTFGGGTKLEIK
notes: as for B4
In the case of B18, the Kd [3] is reported as 11.2 nM, the koff [3] is reported as 0.000516 s⁻¹ and the kon [3] is reported as 46100 M⁻¹ s⁻¹.

B19: VH4 + VL4-scFv (scFv, V domains shown)
VH: QVQLVQSGAEVKKPGASVKVSCKASDYTFTNYWLGWVRQAPGHGLEWIGHIYPGGGYTNYNEKFKGRATLTADTSTSTVYMELSSLRSEDTAVYFCARVRSGNDALDFWGQGTLVTVSS
VL: EIVLTQSPATLSLSPGERATLSCRASESVDEYGISFMNWFQQKPGQAPRLLIYSASNQGSGIPARFSGSGSGTDFTLTISSLEPEDFAMYFCQQSKEVPWTFGGGTKLEIK
notes: as for B4
B19 showed a Kd [3] of 10 nM, a koff [3] of 0.000481 s⁻¹ and a kon [3] of 47900 M⁻¹ s⁻¹.
